Substitutions are numbered along the chain they refer to.
B1: P1AF1284 H2L2 anti-idiotypic IgG1 (antibody, V domains shown)
VH: QVQLVQSGSELKKPGASVKVSCKASGYTVTDYSMNWVRQAPGQGLEWMGWINTETGEPRYTDDFTGRFVFSLDTSVSTAYLQISSLKAEDTAVYYCAREGDYDVFDYWGQGTLVTVSS
VL: DIVMTQSPDSLAVSLGERATINCKSSKSVSTSSYSYMHWYQQKPGQPPKLLIKYVSYLESGVPDRFSGSGSGTDFTLTISSLQAEDVAVYYCQHSREFPYTFGQGTKLEIK
B2: P1AF1281 H1L1 anti-idiotypic IgG1 (antibody, V domains shown)
VH: B1 VH with T65K
VL: B1 VL with K24R, S25A
B3: P1AF1286 H3L3 anti-idiotypic IgG1 (antibody, V domains shown)
VH: B1 VH with D62Q, D63G, T65K
VL: B1 VL with K24R, S25A, H94Q
B4: P1AF1283 H1L2 anti-idiotypic IgG1 (antibody, V domains shown)
VH: B1 VH with T65K
VL: B1 VL
B5: P1AF1287 H7L5 anti-idiotypic IgG1 (antibody, V domains shown)
VH: QVQLVQSGAEVKKPGASVKVSCKASGYTVTDYSMNWVRQAPGQGLEWMGWINTETGEPRYTDDFKGRVTMTRDTSISTAYMELSRLRSDDTAVYYCAREGDYDVFDYWGQGTLVTVSS
VL: B1 VL with K24R, S25A, K53Y
B6: P1AF1285 H3L2 anti-idiotypic IgG1 (antibody, V domains shown)
VH: B1 VH with D62Q, D63G, T65K
VL: B1 VL

Biological target: biotinylated anti-human CD3ε antibody (capture surface of Example 6)
Assay: SPR Biacore T200; IgG 1 ug/ml over captured biotinylated anti-human CD3ε antibody, normalised to anti-human IgG surface and to the unstressed sample; sample stressed 14 d/37° C. pH 7.4

Relative active concentrations (%)	Binder
93	B1
93	B2
87	B3
94	B4
80	B5
94	B6

Biological target: biotinylated anti-human CD3ε antibody (capture surface of Example 6)
Assay: SPR Biacore T200; IgG 1 ug/ml over captured biotinylated anti-human CD3ε antibody, normalised to anti-human IgG surface and to the unstressed sample; sample stressed 14 d/40° C. pH 6.0

Relative active concentrations (%)	Binder
98	B1
99	B2
97	B3
97	B4
98	B5
97	B6

— US20260035462A1
